In article PMC9482650, “Quantitative fragmentomics allow affinity mapping of interactomes” (Nature Communications, 2022):

What was measured:
Assay in all cases: holdup assay
Design in all cases: key: below the threshold = too weak to quantify, mostly under pKd 3.1 to 4
[1] = biological target: LNX1_3, Q8TBB1
[2] = biological target: GORASP2, Q9H8Y8
[3] = biological target: T1, APBA1_1, Q02410
T1 sequence (Q02410 651-752, limits assumed, looked up): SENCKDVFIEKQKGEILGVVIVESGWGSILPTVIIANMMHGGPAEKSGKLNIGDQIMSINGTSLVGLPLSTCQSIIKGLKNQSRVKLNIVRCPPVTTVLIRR

[4] = biological target: T2, NHERF3_3, Q5T2W1
T2 sequence (Q5T2W1 238-333, limits assumed, looked up): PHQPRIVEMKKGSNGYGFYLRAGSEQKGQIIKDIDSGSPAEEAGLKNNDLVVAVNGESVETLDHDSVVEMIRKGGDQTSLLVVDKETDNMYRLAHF

[5] = biological target: T3, MPP6, Q9NZW5
T3 sequence (Q9NZW5 125-219, limits assumed, looked up): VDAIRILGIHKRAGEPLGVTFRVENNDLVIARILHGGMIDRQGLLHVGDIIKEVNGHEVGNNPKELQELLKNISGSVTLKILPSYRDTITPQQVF

[6] = biological target: T4, HTRA4, P83105
T4 sequence (P83105 378-476, limits assumed, looked up): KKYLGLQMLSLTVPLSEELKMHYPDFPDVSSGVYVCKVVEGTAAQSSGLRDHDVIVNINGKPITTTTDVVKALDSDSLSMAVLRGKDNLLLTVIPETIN

[7] = biological target: GORASP1, Q9BQQ3
[8] = biological target: PTPN3, P26045
[9] = biological target: T5, DLG3_1, Q92796
T5 sequence (Q92796 125-227, limits assumed, looked up): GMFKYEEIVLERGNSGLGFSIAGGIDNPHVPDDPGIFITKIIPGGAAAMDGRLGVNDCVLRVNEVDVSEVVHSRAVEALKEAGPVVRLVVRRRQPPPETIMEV

[10] = biological target: PDZRN4_1, Q6ZMN7
[11] = biological target: T6, DLG3_3, Q92796
T6 sequence (Q92796 374-475, limits assumed, looked up): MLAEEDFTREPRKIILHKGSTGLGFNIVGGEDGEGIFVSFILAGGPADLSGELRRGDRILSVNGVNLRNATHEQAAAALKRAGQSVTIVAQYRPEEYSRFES

[12] = biological target: ARHGEF12, Q9NZN5-2
[13] = biological target: T7, TJP3_3, O95049
T7 sequence (O95049 375-456, limits assumed, looked up): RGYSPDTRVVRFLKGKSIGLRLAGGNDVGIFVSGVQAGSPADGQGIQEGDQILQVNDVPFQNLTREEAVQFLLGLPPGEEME

[14] = biological target: T8, HTRA3, P83110
T8 sequence (P83110 354-453, limits assumed, looked up): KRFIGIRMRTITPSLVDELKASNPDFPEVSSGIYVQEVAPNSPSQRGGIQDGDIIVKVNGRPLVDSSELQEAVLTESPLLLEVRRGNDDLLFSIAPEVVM

[15] = biological target: LIMK2, P53671
[16] = biological target: LNX1_1, Q8TBB1
[17] = biological target: T9, PCLO, Q9Y6V0
T9 sequence (Q9Y6V0 4491-4600, limits assumed, looked up): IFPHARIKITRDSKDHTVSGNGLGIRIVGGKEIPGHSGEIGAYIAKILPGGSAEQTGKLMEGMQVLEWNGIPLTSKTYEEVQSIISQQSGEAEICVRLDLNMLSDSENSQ

[18] = biological target: DLG1_1, Q12959
[19] = biological target: MAGI1_1, Q96QZ7
[20] = biological target: T10, MPDZ_5, O75970
T10 sequence (O75970 695-796, limits assumed, looked up): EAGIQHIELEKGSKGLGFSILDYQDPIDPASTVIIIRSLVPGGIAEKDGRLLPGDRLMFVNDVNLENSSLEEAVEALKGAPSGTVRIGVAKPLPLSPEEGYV

[21] = biological target: T11, ARHGAP21, Q5T5U3
T11 sequence (Q5T5U3 45-169, limits assumed, looked up): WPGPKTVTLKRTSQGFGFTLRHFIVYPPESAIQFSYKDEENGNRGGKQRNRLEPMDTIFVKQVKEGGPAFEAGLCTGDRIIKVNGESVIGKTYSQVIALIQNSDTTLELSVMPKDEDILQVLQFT

[22] = biological target: T12, RHPN1, Q8TCX5
T12 sequence (Q8TCX5 508-602, limits assumed, looked up): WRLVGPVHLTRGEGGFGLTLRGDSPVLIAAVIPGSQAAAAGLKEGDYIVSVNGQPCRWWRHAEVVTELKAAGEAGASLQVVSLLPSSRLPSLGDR

[23] = biological target: T13, DFNB31_1, Q9P202
T13 sequence (Q9P202 135-233, limits assumed, looked up): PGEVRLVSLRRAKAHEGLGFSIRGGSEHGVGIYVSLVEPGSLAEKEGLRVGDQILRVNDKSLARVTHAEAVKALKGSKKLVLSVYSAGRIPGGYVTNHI

[24] = biological target: MAGI2_6, Q86UL8
[25] = plain residues with an end cap or a label only (N-terminal biotin on a linker: ado-ado)
[26] = plain residues with an end cap or a label only (N-terminal biotin on a linker: ahx)
[27] = plain residues with an end cap or a label only (N-terminal biotin on a linker: (peg)3)

Chain of PTPN3, P26045 (P26045 505-587): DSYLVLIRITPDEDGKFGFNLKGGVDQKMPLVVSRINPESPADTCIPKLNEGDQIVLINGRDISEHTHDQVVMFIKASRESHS
Chain of LNX1_1, Q8TBB1 (Q8TBB1 261-371): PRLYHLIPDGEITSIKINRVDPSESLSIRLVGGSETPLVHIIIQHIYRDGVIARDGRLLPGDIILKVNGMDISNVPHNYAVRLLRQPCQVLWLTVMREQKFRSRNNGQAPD
Chain of MAGI2_6, Q86UL8 (Q86UL8 1141-1229): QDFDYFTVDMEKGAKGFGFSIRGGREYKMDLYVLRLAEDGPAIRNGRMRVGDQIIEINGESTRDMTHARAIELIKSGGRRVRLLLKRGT
Chain of LIMK2, P53671 (P53671 143-248): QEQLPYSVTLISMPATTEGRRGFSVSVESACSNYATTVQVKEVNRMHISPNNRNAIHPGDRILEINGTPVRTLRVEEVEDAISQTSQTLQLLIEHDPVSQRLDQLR
Chain of LNX1_3, Q8TBB1 (Q8TBB1 500-596): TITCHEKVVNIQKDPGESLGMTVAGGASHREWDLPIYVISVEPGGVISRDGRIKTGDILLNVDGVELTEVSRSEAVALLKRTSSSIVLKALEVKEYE
Chain of ARHGEF12, Q9NZN5-2 (Q9NZN5 other isoform, or with tags, fused parts or gaps): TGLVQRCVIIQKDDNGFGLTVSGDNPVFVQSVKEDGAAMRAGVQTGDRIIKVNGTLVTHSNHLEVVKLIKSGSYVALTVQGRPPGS
Chain of GORASP1, Q9BQQ3 (Q9BQQ3 1-208): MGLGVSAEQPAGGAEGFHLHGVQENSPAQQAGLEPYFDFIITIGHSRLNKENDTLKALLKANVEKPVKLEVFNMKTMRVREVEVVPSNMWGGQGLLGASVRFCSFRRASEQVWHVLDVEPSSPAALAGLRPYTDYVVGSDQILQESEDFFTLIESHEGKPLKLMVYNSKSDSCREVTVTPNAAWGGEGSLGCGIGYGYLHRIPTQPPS
Chain of MAGI1_1, Q96QZ7 (Q96QZ7 1-106): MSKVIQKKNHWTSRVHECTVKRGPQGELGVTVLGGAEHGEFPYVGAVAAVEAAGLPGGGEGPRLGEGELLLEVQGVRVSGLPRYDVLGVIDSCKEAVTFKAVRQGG
Chain of PDZRN4_1, Q6ZMN7 (Q6ZMN7 213-318): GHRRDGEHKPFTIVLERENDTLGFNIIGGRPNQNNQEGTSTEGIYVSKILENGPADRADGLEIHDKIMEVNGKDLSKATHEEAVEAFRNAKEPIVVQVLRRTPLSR

Binder: DPAESMESLV [PTPRG, P23470]
- pKd [1, 25]: below the threshold
- pKd [2, 25]: below the threshold
- pKd [3, 25]: below the threshold
- pKd [4, 25]: below the threshold
- pKd [5, 25]: below the threshold
- pKd [6, 25]: 3.83
- pKd [7, 25]: below the threshold
- pKd [8, 25]: 4.61
- pKd [9, 25]: 4.23
- pKd [10, 25]: 3.72
- pKd [11, 25]: below the threshold
- pKd [12, 25]: below the threshold
- pKd [13, 25]: below the threshold
- pKd [14, 25]: below the threshold
- pKd [15, 25]: below the threshold
- pKd [16, 25]: 4.06
- pKd [17, 25]: below the threshold
- pKd [18, 25]: 4.45
- pKd [19, 25]: below the threshold
- pKd [20, 25]: below the threshold
- pKd [21, 25]: below the threshold
- pKd [22, 25]: 4.17
- pKd [23, 25]: below the threshold
- pKd [24, 25]: 4.16

Binder: NISYRRESAI [KCNJ4, P48050]
- pKd [1, 25]: below the threshold
- pKd [2, 25]: below the threshold
- pKd [3, 25]: below the threshold
- pKd [4, 25]: below the threshold
- pKd [5, 25]: below the threshold
- pKd [6, 25]: below the threshold
- pKd [7, 25]: below the threshold
- pKd [8, 25]: 4.6
- pKd [9, 25]: below the threshold
- pKd [10, 25]: 4.25
- pKd [11, 25]: 3.98
- pKd [12, 25]: below the threshold
- pKd [13, 25]: below the threshold
- pKd [14, 25]: below the threshold
- pKd [15, 25]: below the threshold
- pKd [16, 25]: below the threshold
- pKd [17, 25]: below the threshold
- pKd [18, 25]: 3.54
- pKd [19, 25]: below the threshold
- pKd [20, 25]: below the threshold
- pKd [21, 25]: below the threshold
- pKd [22, 25]: below the threshold
- pKd [23, 25]: 4.29
- pKd [24, 25]: below the threshold

Binder: QDEKVKESYV [ABCA1, O95477]
- pKd [1, 26]: below the threshold
- pKd [2, 26]: 3.75
- pKd [3, 26]: below the threshold
- pKd [4, 26]: 3.51
- pKd [5, 26]: below the threshold
- pKd [6, 26]: below the threshold
- pKd [7, 26]: 3.66
- pKd [8, 26]: 5.04
- pKd [9, 26]: 4.29
- pKd [10, 26]: 3.95
- pKd [11, 26]: 3.97
- pKd [12, 26]: 4.27
- pKd [13, 26]: below the threshold
- pKd [14, 26]: 3.55
- pKd [15, 26]: below the threshold
- pKd [16, 26]: 4.38
- pKd [17, 26]: below the threshold
- pKd [18, 26]: 4.6
- pKd [19, 26]: below the threshold
- pKd [20, 26]: 3.63
- pKd [21, 26]: below the threshold
- pKd [22, 26]: 4.9
- pKd [23, 26]: 3.88
- pKd [24, 26]: 4.53

Binder: EIPAQSPTCV [FZD10, Q9ULW2]
- pKd [1, 25]: below the threshold
- pKd [2, 25]: 3.98
- pKd [3, 25]: below the threshold
- pKd [4, 25]: 3.57
- pKd [5, 25]: below the threshold
- pKd [6, 25]: 4.29
- pKd [7, 25]: 3.85
- pKd [8, 25]: 3.77
- pKd [9, 25]: 3.72
- pKd [10, 25]: 3.63
- pKd [11, 25]: 3.81
- pKd [12, 25]: 3.91
- pKd [13, 25]: 3.78
- pKd [14, 25]: 3.95
- pKd [15, 25]: below the threshold
- pKd [16, 25]: below the threshold
- pKd [17, 25]: 3.47
- pKd [18, 25]: 3.85
- pKd [19, 25]: 3.79
- pKd [20, 25]: below the threshold
- pKd [21, 25]: 4.12
- pKd [22, 25]: below the threshold
- pKd [23, 25]: 3.67
- pKd [24, 25]: 3.85

Binder: QPRTWLQSPV [RTKN, Q9BST9]
- pKd [1, 26]: below the threshold
- pKd [2, 26]: below the threshold
- pKd [3, 26]: below the threshold
- pKd [4, 26]: below the threshold
- pKd [5, 26]: below the threshold
- pKd [6, 26]: below the threshold
- pKd [7, 26]: below the threshold
- pKd [8, 26]: 3.78
- pKd [9, 26]: below the threshold
- pKd [10, 26]: below the threshold
- pKd [11, 26]: 4.41
- pKd [12, 26]: 3.99
- pKd [13, 26]: below the threshold
- pKd [14, 26]: below the threshold
- pKd [15, 26]: below the threshold
- pKd [16, 26]: below the threshold
- pKd [17, 26]: below the threshold
- pKd [18, 26]: 3.74
- pKd [19, 26]: below the threshold
- pKd [20, 26]: below the threshold
- pKd [21, 26]: below the threshold
- pKd [22, 26]: 3.7
- pKd [23, 26]: 4.35
- pKd [24, 26]: below the threshold

Binder: RYEDTTLVEDTVL [WNV-NS5, Q9Q6P4]
- pKd [1, 27]: below the threshold
- pKd [2, 27]: below the threshold
- pKd [3, 27]: below the threshold
- pKd [4, 27]: below the threshold
- pKd [5, 27]: below the threshold
- pKd [6, 27]: below the threshold
- pKd [7, 27]: 3.77
- pKd [8, 27]: 4.37
- pKd [9, 27]: below the threshold
- pKd [10, 27]: 3.94
- pKd [11, 27]: below the threshold
- pKd [12, 27]: 3.92
- pKd [13, 27]: below the threshold
- pKd [14, 27]: below the threshold
- pKd [15, 27]: below the threshold
- pKd [16, 27]: 3.74
- pKd [17, 27]: below the threshold
- pKd [18, 27]: 3.58
- pKd [19, 27]: 3.62
- pKd [20, 27]: below the threshold
- pKd [21, 27]: 5.01
- pKd [22, 27]: 4.41
- pKd [23, 27]: 3.83
- pKd [24, 27]: 3.78
